Data on one molecule can be found in patent US20110059097A1 (UNIVERSITY HEALTH NETWORK, published 2011).

The target in this assay is T1, murine MFAP4 (microfibrillar-associated protein-4) on mouse DNT cells (murine, UniProt Q9D1H9 23-257).
T1 sequence: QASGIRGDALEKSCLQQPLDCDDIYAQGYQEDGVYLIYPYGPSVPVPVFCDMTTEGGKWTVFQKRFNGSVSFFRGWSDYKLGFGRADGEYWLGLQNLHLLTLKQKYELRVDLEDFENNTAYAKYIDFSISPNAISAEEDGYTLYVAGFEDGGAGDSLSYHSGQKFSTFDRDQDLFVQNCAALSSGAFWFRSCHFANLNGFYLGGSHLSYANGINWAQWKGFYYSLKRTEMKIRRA
The assay is described as follows: flow cytometry on mouse DNT cell clones (target later identified as MFAP4).

B1: G1 monoclonal antibody (antibody, V domains shown)
VH: EVKLVESGGGLVQPGRSLKLSCAASGFPFSNYGMAWVRQAPTKGLAWVATISYDGRSTYYRDSVKGRFTISRNNAKSTLYLQMDSLRSEDTATYYCVRHELPEDHWGQGVMVTVSS
VL: DIVMTQSPFSLAVSEGEMVTINCKSGQSLLSSGNQKNYLAWYQQKPGQSPKLLIYYSSTRQSGVPDRFIGSGSGTDFTLTISDVQAEDLADYYCLQHYSSPFTFGSGTKLEIK
notes: Hybridoma monoclonal antibody raised against cell surface molecules of tumor-reactive mouse DNT cells; also called G1 mAb; mAb (clone: G1)
For the molecule B1, the binding result is recorded as “binds”.
